Patent publication US11814447B2, “Peptide ligands for binding to EphA2” (BICYCLERD LIMITED, priority 2018, dated 2023)
Starred links: 1 amine or outer side, 2 acyl side, 3 side chain; linkers in the order of their positions; H or OH if unused. Positions of bridges follow the written chain, without caps; N, C: chain ends. Non-standard residues stand in square brackets, D forms with d. No end group written: not given here. TBMB = c1c(C[*:1])cc(C[*:3])cc1C[*:2]; AF488 = AlexaFluor488; βAla = NCCC(=O)O; Sar = CNCC(=O)O

Molecular target: T1, Mouse EphA2 (Ecto) (Mouse, UniProt Q03145 26-538)
T1 construct: extracellular domain; not shown: Fc fusion or C-terminal polyHis
T1 sequence (Q03145 26-538): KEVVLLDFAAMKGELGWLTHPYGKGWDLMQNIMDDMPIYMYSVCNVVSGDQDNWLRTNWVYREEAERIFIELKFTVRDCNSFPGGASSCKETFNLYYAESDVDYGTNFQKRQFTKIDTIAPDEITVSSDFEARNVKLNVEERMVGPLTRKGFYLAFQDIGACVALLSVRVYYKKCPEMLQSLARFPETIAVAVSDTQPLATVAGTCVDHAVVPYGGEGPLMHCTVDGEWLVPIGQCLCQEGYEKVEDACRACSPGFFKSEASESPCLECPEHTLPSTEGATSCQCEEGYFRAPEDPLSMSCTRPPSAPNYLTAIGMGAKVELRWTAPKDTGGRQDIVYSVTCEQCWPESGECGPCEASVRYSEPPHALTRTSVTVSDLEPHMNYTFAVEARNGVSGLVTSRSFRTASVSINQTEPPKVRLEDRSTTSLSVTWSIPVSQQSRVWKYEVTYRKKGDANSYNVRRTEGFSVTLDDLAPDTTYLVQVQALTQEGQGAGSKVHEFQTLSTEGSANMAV
Assay: fluorescence polarisation, direct binding

Kd: 0.8 nM
Binder: AF488-[βAla][Sar][Sar][Sar][Sar][Sar][Sar][Sar][Sar][Sar][Sar]H[dD]VPCPWGPFWCPVNRPGCA (linker 16-23-30 via TBMB) [Bicycle Compound Number 139 (TBMB scaffold)]
